Consider 3 substances from PMC6961784.

The target of assay [1] is SNAPf-tagged EWS/FLI1 (human). The experiment in a line: live-cell single-particle tracking.
For a further assay, the target named is FUS LCD (UniProt P35637). The assay is described as follows: live-cell single-particle tracking.
UniProt P35637, sequence (P35637 2-214): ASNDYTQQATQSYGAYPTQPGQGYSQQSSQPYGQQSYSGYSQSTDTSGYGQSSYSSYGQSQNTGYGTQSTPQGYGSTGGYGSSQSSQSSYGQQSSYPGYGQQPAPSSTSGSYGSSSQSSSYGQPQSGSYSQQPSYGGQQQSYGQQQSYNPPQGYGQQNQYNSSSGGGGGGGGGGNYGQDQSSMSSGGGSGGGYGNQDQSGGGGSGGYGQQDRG

For the substance EWS LCD-Halo (domain or fragment), in assay [1], the residence time (RT) is 16 s. In assay [1], EWS(YS) LCD-Halo (domain or fragment) had a residence time (RT) of 7 s. “Sp1 LCD (from UniProt P08047 1-785) (domain or fragment)”: in the assay with FUS LCD, the residence time (RT) was below 1 s.
